Positions count from the first letter of the chain named. One block for each molecule: values may come before it.
How the values were obtained:
[1] = target: T1, human EphA4 (binding to human Ephrin A5) (Homo sapiens, UniProt P54764); assay: Human EphA4-human ligand binding inhibition ELISA of humanized antibodies (biotinylated Ephrin A5-Fc); settings: biotinylated human Ephrin A5-Fc 0.7 nM
T1 construct: made in house; not restated for the human SEAP-His protein
Procedure: Each anti-EphA4 monoclonal humanized antibody obtained in Example 16 was evaluated for its inhibitory activity against the binding between human EphA4 and its human ligand according to the following steps. Each well of a 96-well plate (Nunc) was coated with an anti-alkaline phosphatase antibody (Thermo Fisher Scientific). After incubation overnight at 4° C., each well was blocked with 1% BlockAce (DS Pharma Biomedical) at room temperature for 1 hour. After washing with 0.05% Tween 20/PBS (Thermo Fisher Scientific) three times, the human EphA4 extracellular region-SEAP-His protein obtained by the method of Example 2 was added (final concentration: 10 nM) to each well and incubated at room temperature for 1 hour. After washing three times, a ligand and each serially diluted humanized antibody of antibody A (0, 0.003, 0.01, 0.03, 0.1, 0.3, 1, 3, 10, 30, 100, 300, 1000, and 3000 nM) were added to each well. The ligand used was biotinylated human Ephrin A5-Fc chimera (R&D Systems, final concentration: 0.7 nM). After incubation at room temperature for 1 hour and subsequent washing three times, horseradish peroxidase-labeled streptavidin (GE Healthcare) was added thereto and incubated at room temperature for 1 hour. After washing three times, a TMBZ (3,3′,5,5′-tetramethylbenzidine, Sigma-Aldrich) solution was added to each well and incubated at room temperature for 2 minutes. An equal amount of a reaction stopping solution (1N H2SO4, Wako Pure Chemical Industries) was added to each well. The absorbance at 450 nm was read using a microplate reader (PerkinElmer).

human EphA7 = target: T2, human EphA7 (Homo sapiens, UniProt Q15375); assay: Selectivity ELISA of humanized antibodies for human Eph receptor; assay type: binding; settings: coated protein 1 nM
T2 construct: a protein of the extracellular region of each human Eph receptor fused with the SEAP protein and the His tag; made in house; host or cells: Expi293F cells (culture supernatant)
T2 sequence (Q15375 28-555 limits assumed): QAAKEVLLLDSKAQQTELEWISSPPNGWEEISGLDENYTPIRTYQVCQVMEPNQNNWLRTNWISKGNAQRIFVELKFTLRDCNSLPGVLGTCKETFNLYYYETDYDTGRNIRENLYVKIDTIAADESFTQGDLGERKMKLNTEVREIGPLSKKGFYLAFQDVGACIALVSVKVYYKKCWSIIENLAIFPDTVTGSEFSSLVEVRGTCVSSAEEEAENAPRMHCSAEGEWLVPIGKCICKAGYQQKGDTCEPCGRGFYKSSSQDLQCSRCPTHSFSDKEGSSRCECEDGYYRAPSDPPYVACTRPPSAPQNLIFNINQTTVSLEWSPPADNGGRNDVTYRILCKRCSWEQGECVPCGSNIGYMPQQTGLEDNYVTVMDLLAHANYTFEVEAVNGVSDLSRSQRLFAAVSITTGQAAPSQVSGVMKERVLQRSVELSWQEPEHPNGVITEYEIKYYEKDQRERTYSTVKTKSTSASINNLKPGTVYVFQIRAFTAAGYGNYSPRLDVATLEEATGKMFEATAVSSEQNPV
Summary of the method: (§1)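 Extracellular domains of human Eph receptors fused to SEAP-His were expressed in Expi293F cells for 5 days and captured from supernatant (1 nM final) on anti-His-coated plates. Humanized anti-EphA4 antibodies were incubated 1 h at room temperature, then HRP anti-IgG secondary, TMB substrate, and absorbance at 450 nm.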

human EphA8 = target: T3, human EphA8 (Homo sapiens, UniProt P29322); assay: as above; assay type: binding; settings: coated protein 1 nM
T3 construct: a protein of the extracellular region of each human Eph receptor fused with the SEAP protein and the His tag; made in house; host or cells: Expi293F cells (culture supernatant)
T3 sequence (P29322 28-542 limits assumed): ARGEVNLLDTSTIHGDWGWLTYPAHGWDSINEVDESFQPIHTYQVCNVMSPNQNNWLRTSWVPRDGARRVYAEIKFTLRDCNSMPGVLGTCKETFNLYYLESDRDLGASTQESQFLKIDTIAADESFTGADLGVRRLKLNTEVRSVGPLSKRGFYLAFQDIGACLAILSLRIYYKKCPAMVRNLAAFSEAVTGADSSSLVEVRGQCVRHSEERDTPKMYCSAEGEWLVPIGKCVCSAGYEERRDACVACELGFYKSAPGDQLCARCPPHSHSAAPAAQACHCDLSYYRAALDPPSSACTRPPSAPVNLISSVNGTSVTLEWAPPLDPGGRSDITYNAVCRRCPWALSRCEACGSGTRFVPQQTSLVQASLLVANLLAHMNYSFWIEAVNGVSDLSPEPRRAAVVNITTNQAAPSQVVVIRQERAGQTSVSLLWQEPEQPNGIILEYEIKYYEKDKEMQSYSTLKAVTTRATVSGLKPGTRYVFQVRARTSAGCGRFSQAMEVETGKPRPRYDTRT
Summary of the method: as §1

T1 sequence (P54764 20-547): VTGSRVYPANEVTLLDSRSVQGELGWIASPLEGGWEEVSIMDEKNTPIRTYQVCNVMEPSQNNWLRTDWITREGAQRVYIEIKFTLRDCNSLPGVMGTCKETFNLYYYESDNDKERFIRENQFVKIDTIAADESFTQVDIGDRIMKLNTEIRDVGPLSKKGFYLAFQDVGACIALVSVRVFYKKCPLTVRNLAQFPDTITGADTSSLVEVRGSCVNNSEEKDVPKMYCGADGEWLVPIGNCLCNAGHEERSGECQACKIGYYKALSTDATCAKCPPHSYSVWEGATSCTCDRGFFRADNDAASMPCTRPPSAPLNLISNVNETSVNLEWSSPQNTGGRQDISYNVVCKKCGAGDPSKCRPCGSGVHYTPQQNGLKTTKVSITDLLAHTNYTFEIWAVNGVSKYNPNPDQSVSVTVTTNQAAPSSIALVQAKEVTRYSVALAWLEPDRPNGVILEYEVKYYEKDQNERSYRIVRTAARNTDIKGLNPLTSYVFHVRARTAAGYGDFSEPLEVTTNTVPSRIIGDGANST

B1: 69 (antibody, V domains shown)
VH: QIQLVQSGSELKKPGASVKVSCKASGYTFTDYSMHWVRQAPGQGLKWMGWINTETGEPTYADDFKGRFVFSLDTSVSTAYLQISSLKAEDTAVYYCARIPLYYYGSRYWYFDVWGQGTTVTVSS
VL: DIQMTQSPSSLSASVGDRVTITCRASENIYRNLAWYQQKPGKAPKLLVYAATNLADGVPSRFSGSGSGTDYTLTISSLQPEDFATYYCQHFWGTPWTFGQGTKVEIK
modifications: synthetic humanized antibody heavy chain variable region sequence; synthetic humanized antibody light chain variable region sequence
IC50 [1]: 3.1 nM
hEphA7-SEAP-: absorbance at 450 nm, percentage with respect to hEphA4-SEAP-His as 100% (human EphA7): 5.3%
hEphA8-SEAP-: absorbance at 450 nm, percentage with respect to hEphA4-SEAP-His as 100% (human EphA8): 5.5%

B3: 82 (antibody, V domains shown)
VL: B1 VL with V48L, P80S
VH: B1 VH with I2V, D62Q, D63G, K65T
modifications: constant regions without entry; synthetic humanized antibody light chain variable region sequence; synthetic humanized antibody heavy chain variable region sequence
IC50 [1]: 4.1 nM
hEphA7-SEAP-: absorbance at 450 nm, percentage with respect to hEphA4-SEAP-His as 100% (human EphA7): 5.4%
hEphA8-SEAP-: absorbance at 450 nm, percentage with respect to hEphA4-SEAP-His as 100% (human EphA8): 5.8%

B4: 84 (antibody, V domains shown)
VL: B1 VL with V48L, P80S
VH: B1 VH with I2V, K46E
modifications: constant regions without entry; synthetic humanized antibody light chain variable region sequence; synthetic humanized antibody heavy chain variable region sequence
IC50 [1]: 4.6 nM
hEphA7-SEAP-: absorbance at 450 nm, percentage with respect to hEphA4-SEAP-His as 100% (human EphA7): 4.8%
hEphA8-SEAP-: absorbance at 450 nm, percentage with respect to hEphA4-SEAP-His as 100% (human EphA8): 5.3%

B6: 83 (antibody, V domains shown)
VL: B1 VL with V48L, P80S
VH: B1 VH with D62Q, D63G, K65T
modifications: constant regions without entry; synthetic humanized antibody light chain variable region sequence; synthetic humanized antibody heavy chain variable region sequence
IC50 [1]: 3.7 nM
hEphA7-SEAP-: absorbance at 450 nm, percentage with respect to hEphA4-SEAP-His as 100% (human EphA7): 5.5%
hEphA8-SEAP-: absorbance at 450 nm, percentage with respect to hEphA4-SEAP-His as 100% (human EphA8): 6.0%

B8: 81 (antibody, V domains shown)
VL: B1 VL with V48L, P80S
VH: B1 VH with I2V, K46E, D62Q, D63G, K65T
modifications: constant regions without entry; synthetic humanized antibody light chain variable region sequence; synthetic humanized antibody heavy chain variable region sequence
IC50 [1]: 4 nM
hEphA7-SEAP-: absorbance at 450 nm, percentage with respect to hEphA4-SEAP-His as 100% (human EphA7): 5.2%
hEphA8-SEAP-: absorbance at 450 nm, percentage with respect to hEphA4-SEAP-His as 100% (human EphA8): 5.2%

B12: 85 (antibody, V domains shown)
VL: B1 VL with V48L, P80S
VH: B1 VH with I2V
modifications: constant regions without entry; synthetic humanized antibody light chain variable region sequence; synthetic humanized antibody heavy chain variable region sequence
IC50 [1]: 4 nM
hEphA7-SEAP-: absorbance at 450 nm, percentage with respect to hEphA4-SEAP-His as 100% (human EphA7): 4.8%
hEphA8-SEAP-: absorbance at 450 nm, percentage with respect to hEphA4-SEAP-His as 100% (human EphA8): 5.5%

Next, values leading:

IC50 [1]: 4.5 nM
hEphA7-SEAP-: absorbance at 450 nm, percentage with respect to hEphA4-SEAP-His as 100% (human EphA7): 4.9%
hEphA8-SEAP-: absorbance at 450 nm, percentage with respect to hEphA4-SEAP-His as 100% (human EphA8): 5.4%
B2: 90 (antibody, V domains shown)
VL: B1 VL with K45Q, V48L
VH: B1 VH with I2V, K46E
modifications: constant regions without entry; synthetic humanized antibody light chain variable region sequence; synthetic humanized antibody heavy chain variable region sequence

IC50 [1]: 3.6 nM
hEphA7-SEAP-: absorbance at 450 nm, percentage with respect to hEphA4-SEAP-His as 100% (human EphA7): 6.0%
hEphA8-SEAP-: absorbance at 450 nm, percentage with respect to hEphA4-SEAP-His as 100% (human EphA8): 6.2%
B5: 88 (antibody, V domains shown)
VL: B1 VL with K45Q, V48L
VH: B1 VH with I2V, D62Q, D63G, K65T
modifications: constant regions without entry; synthetic humanized antibody light chain variable region sequence; synthetic humanized antibody heavy chain variable region sequence

IC50 [1]: 4 nM
hEphA7-SEAP-: absorbance at 450 nm, percentage with respect to hEphA4-SEAP-His as 100% (human EphA7): 5.6%
hEphA8-SEAP-: absorbance at 450 nm, percentage with respect to hEphA4-SEAP-His as 100% (human EphA8): 5.7%
B7: 86 (antibody, V domains shown)
VL: B1 VL with V48L, P80S
VH: B1 VH
modifications: constant regions without entry; synthetic humanized antibody light chain variable region sequence; synthetic humanized antibody heavy chain variable region sequence

IC50 [1]: 4.9 nM
hEphA7-SEAP-: absorbance at 450 nm, percentage with respect to hEphA4-SEAP-His as 100% (human EphA7): 5.6%
hEphA8-SEAP-: absorbance at 450 nm, percentage with respect to hEphA4-SEAP-His as 100% (human EphA8): 6.2%
B9: 91 (antibody, V domains shown)
VL: B1 VL with K45Q, V48L
VH: B1 VH with I2V
modifications: constant regions without entry; synthetic humanized antibody light chain variable region sequence; synthetic humanized antibody heavy chain variable region sequence

IC50 [1]: 3 nM
hEphA7-SEAP-: absorbance at 450 nm, percentage with respect to hEphA4-SEAP-His as 100% (human EphA7): 5.3%
hEphA8-SEAP-: absorbance at 450 nm, percentage with respect to hEphA4-SEAP-His as 100% (human EphA8): 5.7%
B10: 87 (antibody, V domains shown)
VL: B1 VL with K45Q, V48L
VH: B1 VH with I2V, K46E, D62Q, D63G, K65T
modifications: constant regions without entry; synthetic humanized antibody light chain variable region sequence; synthetic humanized antibody heavy chain variable region sequence

IC50 [1]: 4.3 nM
hEphA7-SEAP-: absorbance at 450 nm, percentage with respect to hEphA4-SEAP-His as 100% (human EphA7): 5.4%
hEphA8-SEAP-: absorbance at 450 nm, percentage with respect to hEphA4-SEAP-His as 100% (human EphA8): 5.7%
B11: 89 (antibody, V domains shown)
VL: B1 VL with K45Q, V48L
VH: B1 VH with D62Q, D63G, K65T
modifications: constant regions without entry; synthetic humanized antibody light chain variable region sequence; synthetic humanized antibody heavy chain variable region sequence

Source: patent US10428140B2, “Anti-EphA4 antibody” (EISAI R&D MANAGEMENT CO., LTD., priority 2015, dated 2019)
